Targets include Ec Hfq Q33W (Escherichia coli, UniProt P0A6X3 1-102, Q33W); Ec Hfq Q95W (Escherichia coli, UniProt P0A6X3 1-102, Q95W); Ec Hfq G77W (Escherichia coli, UniProt P0A6X3 1-102, G77W); Sa Hfq Q31W (Staphylococcus aureus, UniProt A0A0H3JV59 1-77, Q31W); Ec Hfq R17W (Escherichia coli, UniProt P0A6X3 1-102, R17W); Ec Hfq F39W (Escherichia coli, UniProt P0A6X3 1-102, F39W); Ec Hfq Y83W (Escherichia coli, UniProt P0A6X3 1-102, Y83W); Ec Hfq Y25W (Escherichia coli, UniProt P0A6X3 1-102, Y25W); Hfq WT (Escherichia coli, UniProt P0A6X3 1-102); Ec Hfq F11W (Escherichia coli, UniProt P0A6X3 1-102, F11W); Sa Hfq F25W (Staphylococcus aureus, UniProt A0A0H3JV59 1-77, F25W); Sa Hfq WT (Staphylococcus aureus, UniProt A0A0H3JV59 1-77); Ec Hfq K31W (Escherichia coli, UniProt P0A6X3 1-102, K31W).

Test in all cases: fluorescence polarization

The source of these data is paper PMC3936774.

For the molecule UUUUUU (ssRNA) [U6 (fluorescein)], the Kd (usually the equilibrium constant for the complex coming apart) turned out to be 405 ± 182 nM with Ec Hfq Q33W; 848 ± 289 nM with Ec Hfq Q95W; 380 ± 93.2 nM with Ec Hfq G77W; 114 ± 23.2 nM with Sa Hfq Q31W; 1600 ± 80 nM with Ec Hfq R17W; 2000 ± 400 nM with Ec Hfq F39W. Also, the Kd with Ec Hfq Y83W was 778 ± 254 nM; in the series with Ec Hfq Y25W, 837 ± 62.5 nM; with Hfq WT, 766 ± 73.7 nM; with Ec Hfq F11W it was 503 ± 55.5 nM; with Sa Hfq F25W it was 41.9 ± 25.1 nM; with Ec Hfq K31W, 1120 ± 73 nM. Also, the binding result with Sa Hfq WT is given as “binds”.
